Test results taken from publication PMC4316159.

How the values were obtained:
[1] = biological target: biotinylated maltose-binding protein (MBP) [MBP: P0AEX9]; assay: SPR
[2] = biological target: CD44 trans-membrane domain (TMD) fused to maltose-binding protein [MBP: P0AEX9]; assay: single-molecule force spectroscopy

Substance: monobody YS1(E47A) (designed binder)
- Kd [1]: 101 nM
- koff [1]: 0.0387 s⁻¹
- kon [1]: 360000 M⁻¹ s⁻¹
- decrease of rupture force against YS1 [2]: 10 to 15 pN
- unstressed off-rate k0off (Bell model) [2]: 0.00076 s⁻¹
